Laboratory results: patent publication US20180155451A1 (published 2018)
Numbering of substitutions follows the chain as printed. Names and notes keep the numbering of the source.

B1: H240-Kn138/H240-Hl068/L73-k0 (antibody, human IgG1, kappa)
heavy 1: QDQLVQSGAEVKKPGASVKVSCKASGFNIKDTYIQWVRQAPGQGLEWMGRIDPLRKQTKYREKFEGRVTITADTSTNTAYMELSSLRSEDTAVYYCVRSGREFDYWGQGTLVTVSSASTKGPSVFPLAPSSKSTSGGTAALGCLVKDYFPEPVTVSWNSGALTSGVHTFPAVLQSSGLYSLSSVVTVPSSSLGTQTYICNVNHKPSNTKVDKKVEPKSCDKTHTCPPCPAPEYYWGPMVFLFPPKPKDTLMISRTPEVTCVVVDVSDEDPEVKFNWYVDGVEVHNAKTKPREEQYNATYRVVSVLTVLHQDWLNGKEYKCKVSNKDWPAPIEKTISKAKGQPREPQVCTLPPSRDELTKNQVSLWCLVKGFYPSDIAVEWESNGQPENNYKTTPPVLDSDGSFFLYSKLTVDKSRWQQGNVFSCSVMHEALHNHYTQKSLSLSP
heavy 2: QDQLVQSGAEVKKPGASVKVSCKASGFNIKDTYIQWVRQAPGQGLEWMGRIDPLRKQTKYREKFEGRVTITADTSTNTAYMELSSLRSEDTAVYYCVRSGREFDYWGQGTLVTVSSASTKGPSVFPLAPSSKSTSGGTAALGCLVKDYFPEPVTVSWNSGALTSGVHTFPAVLQSSGLYSLSSVVTVPSSSLGTQTYICNVNHKPSNTKVDKKVEPKSCDKTHTCPPCPAPELLGGPSVFLFPPKPKDTLMISRTPEVTCVVVDVSHEEPEVKFNWYVDGVEVHNAKTKPREEQYNSTYRVVSVLTVLHQDWLNGKEYKCKVSNDALPKPIEETISKAKGQPREPQVYTLPPSRCELTKNQVSLSCAVKGFYPSDIAVEWESNGQPENNYKTTPPVLDSDGSFFLVSKLTVDKSRWQQGNVFSCSVMHEALHNHYTQKSLSLSP
light: DIQMTQSPSSLSASVGDRVTITCRASQDIHKYIAWYQQKPGQAPRLLIQYTSTLQPGVPSRFSGSGSGTDYTFTISSLQPEDIATYYCLQYEQLRTFGGGTKVEIKRTVAAPSVFIFPPSDEQLKSGTASVVCLLNNFYPREAKVQWKVDNALQSGNSQESVTEQDSKDSTYSLSSTLTLSKADYEKHKVYACEVTHQGLSSPVTKSFNRGEC
notes: Heterodimerized anti-epiregulin IgG1 antibody; L328W introduced into H240-Kn120; also called H240-Kn138/H240-HI068/L73-k0
B2: H240-Kn138/H240-Hl147/L73-k0 (antibody, human IgG1, kappa)
heavy 1: B1 heavy 1
heavy 2: B1 heavy 2 with L327W
light: B1 light
notes: Anti-epiregulin IgG1 antibody; L328W introduced into both H chains of H240-Kn120/H240-Hl068/L73-k0; also called H240-Kn138/H240-HI147/L73-k0
B3: H240-Kn149/H240-Hl068/L73-k0 (antibody, human IgG1, kappa)
heavy 1: B1 heavy 1 with K333L
heavy 2: B1 heavy 2
light: B1 light
notes: Heterodimerized anti-epiregulin IgG1 antibody; L328W and K334L introduced into H240-Kn120; also called H240-Kn149/H240-HI068/L73-k0
B4: H240-Kn166/H240-Hl170/L73-k0 (antibody, human IgG1, kappa)
heavy 1: B1 heavy 1 with W327A
heavy 2: B1 heavy 2 with L327A
light: B1 light
notes: Anti-epiregulin IgG1 antibody; L328A introduced into both H chains of H240-Kn120/H240-Hl068/L73-k0; also called H240-Kn166/H240-HI170/L73-k0
B5: H240-Kn172/H240-Hl177/L73-k0 (antibody, human IgG1, kappa)
heavy 1: B1 heavy 1 with W327L, I331M
heavy 2: B1 heavy 2 with I331Q
light: B1 light
notes: Heterodimerized anti-epiregulin IgG1 antibody; I332M introduced into H240-Kn120 and I332Q into H240-Hl068; also called H240-Kn172/H240-HI177/L73-k0
B6: H240-Kn173/H240-Hl068/L73-k0 (antibody, human IgG1, kappa)
heavy 1: B1 heavy 1 with W327L, I331Q
heavy 2: B1 heavy 2
light: B1 light
notes: Heterodimerized anti-epiregulin IgG1 antibody; I332Q introduced into H240-Kn120; also called H240-Kn173/H240-HI068/L73-k0
B7: H240-Kn178/H240-Hl068/L73-k0 (antibody, human IgG1, kappa)
heavy 1: B1 heavy 1 with W327L, K333Y
heavy 2: B1 heavy 2
light: B1 light
notes: Heterodimerized anti-epiregulin IgG1 antibody; K334Y introduced into H240-Kn120; also called H240-Kn178/H240-HI068/L73-k0

Each binder was assayed against T1, FcgRIIIaF (human, UniProt P08637 17-208) (assay: SPR (Biacore), antibody captured, FcgR as analyte).
T1 construct: extracellular domain; Soluble extracellular domain with C-terminal His tag; polymorphic site made after J. Clin. Invest; also called FcγRIIIa F; not shown: His tag attached to the C terminus
T1 sequence (P08637 17-208): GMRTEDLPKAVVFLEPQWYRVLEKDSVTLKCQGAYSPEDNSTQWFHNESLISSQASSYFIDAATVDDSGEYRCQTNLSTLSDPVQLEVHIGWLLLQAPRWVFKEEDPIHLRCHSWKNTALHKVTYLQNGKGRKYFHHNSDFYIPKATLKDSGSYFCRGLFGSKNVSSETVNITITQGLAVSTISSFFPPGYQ
Description: (§1) Analysis of interaction between obj ective antibody and the FcγR was carried out using Biacore T100 (GE Healthcare), Biacore T200, Biacore A100, and Biacore 4000. HBS-EP+ (GE Healthcare) was used as the running buffer, and the measurement temperature was set to 25° C. Chips produced by immobilizing the antigen peptide by the amine coupling method to a Series S sensor Chip CM5 (GE Healthcare), chips produced by allowing preliminarily biotinylated antigen peptides to interact with and immobilize onto a Series S Sensor Chip SA (certified) (GE Healthcare), chips produced by immobilizing Protein L (ACTIGEN, BioVision) to Series S Sencor Chip CM5 (GE Healthcare), or chips produced by immobilizing Protein A/G (Thermo Scientific) to Series S Sencor Chip CM5 (GE Healthcare) were used. Antibodies of interest were captured onto these chips, and allowed to interact to each FcγR diluted with running buffer. To regenerate and repeatedly use the chip, the antibodies captured onto the chip were washed off by reacting 10 mM glycine-HCl, pH 1.5.
B1 showed a Kd of 3.7 nM.
Binder B2 has a Kd of 22 nM.
For B3, the Kd was 1.5 nM.
B4 gave a Kd of 4.2 nM.
B5 showed a Kd of 2 nM.
Binder B6 has a Kd of 1.8 nM.
B7 showed a Kd of 1.4 nM.

What follows are binders tested against T2, FcgRIIb (human, UniProt P31994 43-217) (assay: SPR (Biacore), antibody captured, FcgR as analyte).
T2 construct: extracellular domain; Soluble extracellular domain with C-terminal His tag; also called FcγRIIb; CD32B; not shown: His tag attached to the C terminus
T2 sequence (looked up): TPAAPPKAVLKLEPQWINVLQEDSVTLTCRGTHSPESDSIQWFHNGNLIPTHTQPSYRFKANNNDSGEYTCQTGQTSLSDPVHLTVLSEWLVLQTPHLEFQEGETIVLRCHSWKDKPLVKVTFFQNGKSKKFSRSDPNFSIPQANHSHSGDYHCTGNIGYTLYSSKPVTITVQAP
Description: as §1
B1 gave a Kd of 130 nM.
With B2 the Kd was 110 nM.
B3 showed a Kd of 150 nM.
Work on B4 yielded a Kd of 200 nM.
For B5, the Kd was 160 nM.
B6 gave a Kd of 280 nM.
B7 was tested, and the Kd was 110 nM.

What follows are binders tested against T3, FcgRIIaR (human, UniProt P12318 34-217) (assay: SPR (Biacore), antibody captured, FcgR as analyte).
T3 construct: extracellular domain; Soluble extracellular domain with C-terminal His tag; also called FcγRIIa R; FcγRIIa type R; not shown: His tag attached to the C terminus
T3 sequence (looked up): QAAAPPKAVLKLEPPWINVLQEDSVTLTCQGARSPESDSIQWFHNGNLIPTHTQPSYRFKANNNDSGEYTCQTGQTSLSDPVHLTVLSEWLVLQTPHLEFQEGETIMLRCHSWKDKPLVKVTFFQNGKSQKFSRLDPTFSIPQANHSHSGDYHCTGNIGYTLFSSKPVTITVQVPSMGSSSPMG
Description: as §1
B1 was tested, and the Kd was 19 nM.
For B2, the Kd was 11 nM.
Binder B3 has a Kd of 19 nM.
B4 showed a Kd of 31 nM.
Work on B5 yielded a Kd of 29 nM.
B6 gave a Kd of 40 nM.
Binder B7 has a Kd of 26 nM.

The binders below were run against T4, FcgRIIIaV (human, UniProt P08637 17-208) (assay: SPR (Biacore), antibody captured, FcgR as analyte).
T4 construct: extracellular domain; Soluble extracellular domain with C-terminal His tag; polymorphic site made after J. Clin. Invest; also called FcγRIIIa V; not shown: His tag attached to the C terminus
T4 sequence (P08637 17-208 F176V limits assumed): as the sequence (P08637 17-208) above, with F160V counted along it
Description: as §1
With B1 the Kd was 0.43 nM.
B2 was tested, and the Kd was 16 nM.
For B3, the Kd was 0.32 nM.
B4 was tested, and the Kd was 1 nM.
B5 showed a Kd of 0.22 nM.
In the case of B6, the Kd is reported as 0.4 nM.
In the case of B7, the Kd is reported as 0.19 nM.

Each binder was assayed against T5, FcgRIIaH (human, UniProt P12318 34-217) (assay: SPR (Biacore), antibody captured, FcgR as analyte).
T5 construct: extracellular domain; Soluble extracellular domain with C-terminal His tag; also called FcγRIIa H; FcγRIIa type H; not shown: His tag attached to the C terminus
T5 sequence (looked up): T3 sequence (looked up) with R134H
Description: as §1
B1 gave a Kd of 25 nM.
Work on B2 yielded a Kd of 130 nM.
With B3 the Kd was 26 nM.
With B4 the Kd was 22 nM.
For B5, the Kd was 57 nM.
For B6, the Kd was 57 nM.
With B7 the Kd was 65 nM.

The binders below were run against T6, FcgRIa (human, UniProt P12314 16-292) (assay: SPR (Biacore), antibody captured, FcgR as analyte).
T6 construct: extracellular domain; Soluble extracellular domain with C-terminal His tag, expressed in FreeStyle293 cells; also called FcγRIa; FcγRI; not shown: His tag attached to the C terminus
T6 sequence (P12314 16-292): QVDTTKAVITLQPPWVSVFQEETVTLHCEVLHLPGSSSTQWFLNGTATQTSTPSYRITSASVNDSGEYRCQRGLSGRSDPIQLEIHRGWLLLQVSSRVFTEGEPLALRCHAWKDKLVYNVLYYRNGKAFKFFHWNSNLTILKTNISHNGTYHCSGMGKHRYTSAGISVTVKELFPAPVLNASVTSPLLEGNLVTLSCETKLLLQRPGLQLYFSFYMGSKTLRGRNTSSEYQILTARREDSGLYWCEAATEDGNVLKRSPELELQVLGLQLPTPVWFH
Description: as §1
B1 showed a Kd of 0.16 nM.
Binder B2 has a Kd of 0.31 nM.
Binder B3 has a Kd of 0.38 nM.
In the case of B4, the Kd is reported as 0.066 nM.
B5 gave a Kd of 0.25 nM.
Work on B6 yielded a Kd of 0.12 nM.
B7 was tested, and the Kd was 0.23 nM.

Each binder was assayed against T1, FcgRIIIaF (assay: SPR (Biacore); KD of H240-Kn120/H240-Hl068/L73-k0 divided by KD of this antibody).
Description: (§2) Analysis of interaction between obj ective antibody and the FcγR was carried out using Biacore T100 (GE Healthcare), Biacore T200, Biacore A100, and Biacore 4000.
B1 was tested, and the “Relative KD” value was 0.6.
With B2 the “Relative KD” value was 0.1.
In the case of B3, the “Relative KD” value is reported as 1.5.
B4 was tested, and the “Relative KD” value was 0.5.
For B5, the “Relative KD” value was 1.1.
For B6, the “Relative KD” value was 1.2.
B7 was tested, and the “Relative KD” value was 1.6.

What follows are binders tested against T2, FcgRIIb in the same assay as above.
Description: as §2
B1 was tested, and the “Relative KD” value was 1.2.
With B2 the “Relative KD” value was 1.4.
B3 was tested, and the “Relative KD” value was 1.
B4 was tested, and the “Relative KD” value was 0.8.
In the case of B5, the “Relative KD” value is reported as 0.9.
With B6 the “Relative KD” value was 0.5.
With B7 the “Relative KD” value was 1.4.

What follows are binders tested against T3, FcgRIIaR in the same assay as above.
Description: as §2
B1 was tested, and the “Relative KD” value was 1.1.
With B2 the “Relative KD” value was 1.8.
In the case of B3, the “Relative KD” value is reported as 1.1.
For B4, the “Relative KD” value was 0.6.
In the case of B5, the “Relative KD” value is reported as 0.7.
In the case of B6, the “Relative KD” value is reported as 0.5.
With B7 the “Relative KD” value was 0.8.

What follows are binders tested against T4, FcgRIIIaV in the same assay as above.
Description: as §2
B1 was tested, and the “Relative KD” value was 0.8.
B2 was tested, and the “Relative KD” value was 0.
In the case of B3, the “Relative KD” value is reported as 1.1.
In the case of B4, the “Relative KD” value is reported as 0.4.
In the case of B5, the “Relative KD” value is reported as 1.6.
For B6, the “Relative KD” value was 0.9.
With B7 the “Relative KD” value was 1.9.

These binders were tested against T5, FcgRIIaH in the same assay as above.
Description: as §2
With B1 the “Relative KD” value was 1.6.
In the case of B2, the “Relative KD” value is reported as 0.3.
For B3, the “Relative KD” value was 1.6.
B4 was tested, and the “Relative KD” value was 1.9.
B5 was tested, and the “Relative KD” value was 0.7.
In the case of B6, the “Relative KD” value is reported as 0.7.
For B7, the “Relative KD” value was 0.6.

The binders below were run against T6, FcgRIa in the same assay as above.
Description: as §2
B1 was tested, and the “Relative KD” value was 1.
B2 was tested, and the “Relative KD” value was 0.5.
In the case of B3, the “Relative KD” value is reported as 0.4.
In the case of B4, the “Relative KD” value is reported as 2.4.
For B5, the “Relative KD” value was 0.6.
With B6 the “Relative KD” value was 1.3.
B7 was tested, and the “Relative KD” value was 0.7.
